Where two headings read alike, the source gives them in different places. Where no end group is shown, it is not given here.
What was measured:
Assay in all cases: BLI
[1] = target: T1, human TLR3 ectodomain (Wuxi Biologics, custom order) (human, UniProt O15455 24-704, biotin (for yeast display))
[2] = target: T1, human TLR3 ectodomain (Wuxi Biologics, …); remark: listed apart in the source
[3] = target: T1, human TLR3 ectodomain (Wuxi Biologics, …); remark: listed apart in the source
[4] = target: T1, human TLR3 ectodomain (Wuxi Biologics, …); remark: listed apart in the source

Kd [2] [nM]	Binder	other results
	minibinder 8 with C-terminal Avi-His6 tag (designed binder, also: biotin (for BLI), position not given here) SLEEEAERVVEELVKEFNLSETQEIALRRYAEFAAKAGASEEVIEELLRRVAERLS-{Avi-His6}	Kd [1]: 1200 nM
40	minibinder 7.8 (designed binder, also: biotinylated (site not given here)) SAMEYYVKELLRTAEYAREAGDPEYVRKALEQAELVARILHNEELKEEIREVEEEL	
31	minibinder 7.7 (designed binder, also: biotin) SAMEYYVKELLRTAEYAREAGDPEYVRKALEKAELVARILHNEELKEEIREVEEEL	
17	minibinder 7.2 (designed binder, also: biotin) SAMEYYVKVLLRTAEYAREAGDPEYVRKALEKAELVARILHNEELKEEIREVEEEL	
29	minibinder 7.3 (designed binder, also: biotin) SAMEYYVKVLLRTAEYAREAGDPEYVRKALEQAELVARILHNEELKEEIREVEEEL	
108	minibinder 7.12 (designed binder, also: biotin) SAMEYYVKELLRTAEYAREAGDPEDVRNALEQAELVARILHNEELKEEIREVEEEL	
24	minibinder 7.6 (designed binder, also: biotin) SAMEYYVKELLRTAEYAREAGDPEDVRKALEKAELVARILHNEELKEEIREVEEEL	
1.1	minibinder 7.5 (designed binder, also: biotin) SAMEYYVKVLLRTAEYAREAGDPEDVRKALEQAELVARILHNEELKEEIREVEEEL	
45	minibinder 7.11 (designed binder, also: biotin) SAMEYYVKELLRTAEYAREAGDPEDVRKALEQAELVARILHNEELKEEIREVEEEL	
190	minibinder 7.10 (designed binder, also: biotin) SAMEYYVKELLRTAEYAREAGEPEYVRNALEQAELVARILHNEELKEEIREVEEEL	
34	minibinder 7.4 (designed binder, also: biotin) SAMEYYVNVLLRTAEYAREAGDPEDVRKALEKAELVARILHNEELKEEIREVEEEL	
95	minibinder 7.9 (designed binder, also: biotinylated (site not given here)) SAMEYYVKELLRTAEYAREAGDPEYVRNALEQAELVARILHNEELKEEIREVEEEL	
	minibinder 6 with C-terminal Avi-His6 tag (designed binder, also: biotin) SAVELYLELLERSLRLAVEAGDPEDAERILRKARQIARVFNDPELEEIVERMEEILK-{Avi tag-His6}	Kd [3]: 43 nM
	minibinder 7 with C-terminal Avi-His6 tag (designed binder, also: biotin) SAMERYVKVLLRTAELAREAGDPEDVRKALEKAELVARILHNEELKEEIREVEEEL-{Avi tag-His6}	Kd [1]: 440 nM
	minibinder 8.5 (designed binder, also: biotin (for BLI), position not given here) SLEEEAERVVEELVKEFNLSRTQEIALRRYAEYAARATASEEVIEELLRRVAERLS	Kd [4]: 170 nM
	minibinder 8.2 (designed binder, also: biotin (for BLI), position not given here) SLEEEAERVVEELVKEFNLSETQEIALRRYAEYAAKAGASEEVIEELLRRVAERLS	Kd [4]: 600 nM
	minibinder 8.4 (designed binder, also: biotin (for BLI), position not given here) SLEEEAERVVEELVKEFNLSRTQEIALRRYAEYAARAGASEEVIEELLRRVAERLS	Kd [4]: 230 nM
	minibinder 8.1 (designed binder, also: biotinylated (site not given here)) SLEEEAERVVEELVKEFNLSRTQEIALRRYAEFAAKAGASEEVIEELLRRVAERLS	Kd [4]: 690 nM
	minibinder 8.3 (designed binder, also: biotin (for BLI), position not given here) SLEEEAERVVEELVKEFNLSRTQEIALRRYAEYAAKAGASEEVIEELLRRVAERLS	Kd [4]: 230 nM

— doi:10.1101/2024.04.17.589973 (2024)
